T1: glutathione S-transferase-calreticulin (GST-CRT) (UniProt P15253 18-418)
T1 construct: calreticulin from the plasmid pGEX-3X-GST-CRT (Baksh and Michalak, 1991; from M. Michalak); also called WT GST-CRT; GST-CRT-WT; source: E. coli BL21, purified (glutathione sepharose)
T1 sequence (looked up): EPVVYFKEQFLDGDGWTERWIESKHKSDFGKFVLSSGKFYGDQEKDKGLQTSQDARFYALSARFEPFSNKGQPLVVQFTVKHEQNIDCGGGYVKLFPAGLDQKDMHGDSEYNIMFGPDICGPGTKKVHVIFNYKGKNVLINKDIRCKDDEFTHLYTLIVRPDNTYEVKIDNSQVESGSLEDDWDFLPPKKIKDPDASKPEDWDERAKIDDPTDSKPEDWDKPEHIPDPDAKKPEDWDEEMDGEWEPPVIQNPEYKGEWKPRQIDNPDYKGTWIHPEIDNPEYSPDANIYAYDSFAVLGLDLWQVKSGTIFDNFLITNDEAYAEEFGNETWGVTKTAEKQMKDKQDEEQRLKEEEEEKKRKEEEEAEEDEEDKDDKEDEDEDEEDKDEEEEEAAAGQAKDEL


Target: T1, glutathione S-transferase-calreticulin …
Assay: pull-down; GST-CRT or GST-CRT-Y109A on glutathione beads, 16 h at 4 C with lysate (MNT: 20 mM MES, 100 mM NaCl, 30 mM Tris pH 7.5, 0.5% Triton X-100, protease inhibitors, 20 mM NEM) of ALG6-/-, ALG6/UGGT1-/- or ALG6/UGGT2-/- HEK293-EBNA1-6E cells treated with 500 uM DNJ for 14 h; immunoblot; percent reglucosylation = (GST-CRT lane minus Y109A lane) / total in whole cell lysate x 100
Settings: one partner purified

percent reglucosylation (bound by GST-CRT minus GST-CRT-Y109A, of the total in the lysate), ALG6/UGGT2-/- cells [%] | Binder
20 | β-hexosaminidase subunit β (HexB), immature ER-localized proHexB (enzyme, human (endogenous in HEK293-EBNA1-6E), UniProt P07686 43-556, looked up, monoglucosylated N-glycans (reglucosylated by the UGGTs; sites not stated), beta-hexosaminidase subunit beta, human, endogenous; the immature or ER-localized pro form, not yet processed into three chains; By immunoblot only proHexB was purified by GST-CRT; source: endogenous, lysate of CRISPR-edited HEK293-EBNA1-6E cells (ALG6-/- background), DNJ treated) ARAPSVSAKPGPALWPLPLLVKMTPNLLHLAPENFYISHSPNSTAGPSCTLLEEAFRRYHGYIFGFYKWHHEPAEFQAKTQVQQLLVSITLQSECDAFPNISSDESYTLLVKEPVAVLKANRVWGALRGLETFSQLVYQDSYGTFTINESTIIDSPRFSHRGILIDTSRHYLPVKIILKTLDAMAFNKFNVLHWHIVDDQSFPYQSITFPELSNKGSYSLSHVYTPNDVRMVIEYARLRGIRVLPEFDTPGHTLSWGKGQKDLLTPCYSRQNKLDSFGPINPTLNTTYSFLTTFFKEISEVFPDQFIHLGGDEVEFKCWESNPKIQDFMRQKGFGTDFKKLESFYIQKVLDIIATINKGSIVWQEVFDDKAKLAPGTIVEVWKDSAYPEELSRVTASGFPVILSAPWYLDLISYGQDWRKYYKVEPLDFGGTQKQKQLFIGGEACLWGEYVDATNLTPRLWPRASAVGERLWSSKDVRDMDDAYDRLTRHRCRMVERGIAAQPLYAGYCNHENM
12 | ectonucleotide pyrophosphatase/phosphodiesterase family member 1 (ENPP1) (enzyme, human (endogenous in HEK293-EBNA1-6E), UniProt P22413 1-925, looked up, monoglucosylated N-glycans (reglucosylated by the UGGTs; sites not stated), ectonucleotide pyrophosphatase/phosphodiesterase family member 1, human, endogenous; source: endogenous, lysate of CRISPR-edited HEK293-EBNA1-6E cells (ALG6-/- background), DNJ treated) MERDGCAGGGSRGGEGGRAPREGPAGNGRDRGRSHAAEAPGDPQAAASLLAPMDVGEEPLEKAARARTAKDPNTYKVLSLVLSVCVLTTILGCIFGLKPSCAKEVKSCKGRCFERTFGNCRCDAACVELGNCCLDYQETCIEPEHIWTCNKFRCGEKRLTRSLCACSDDCKDKGDCCINYSSVCQGEKSWVEEPCESINEPQCPAGFETPPTLLFSLDGFRAEYLHTWGGLLPVISKLKKCGTYTKNMRPVYPTKTFPNHYSIVTGLYPESHGIIDNKMYDPKMNASFSLKSKEKFNPEWYKGEPIWVTAKYQGLKSGTFFWPGSDVEINGIFPDIYKMYNGSVPFEERILAVLQWLQLPKDERPHFYTLYLEEPDSSGHSYGPVSSEVIKALQRVDGMVGMLMDGLKELNLHRCLNLILISDHGMEQGSCKKYIYLNKYLGDVKNIKVIYGPAARLRPSDVPDKYYSFNYEGIARNLSCREPNQHFKPYLKHFLPKRLHFAKSDRIEPLTFYLDPQWQLALNPSERKYCGSGFHGSDNVFSNMQALFVGYGPGFKHGIEADTFENIEVYNLMCDLLNLTPAPNNGTHGSLNHLLKNPVYTPKHPKEVHPLVQCPFTRNPRDNLGCSCNPSILPIEDFQTQFNLTVAEEKIIKHETLPYGRPRVLQKENTICLLSQHQFMSGYSQDILMPLWTSYTVDRNDSFSTEDFSNCLYQDFRIPLSPVHKCSFYKNNTKVSYGFLSPPQLNKNSSGIYSEALLTTNIVPMYQSFQVIWRYFHDTLLRKYAEERNGVNVVSGPVFDFDYDGRCDSLENLRQKRRVIRNQEILIPTHFFIVLTSCKDTSQTPLHCENLDTLAFILPHRTDNSESCVHGKHDSSWVEELLMLHRARITDVEHITGLSFYQQRKEPVSDILKLKTHLPTFSQED
